By EC50 is commonly meant the concentration needed to bring the measured effect to its halfway point.

Positions count from the first letter of the chain named. Where “and” joins values, the source holds several entries; their conditions need not be identical. Equal values may be shown once. Read-outs that look alike come from different tables or passages of the source. Where a SMILES comes first, the peptide text is derived from it. Where no end group is shown, it is not given here. [ ]: non-standard residue; d: D form. The star is where a group is joined. Arg(Me2a) = CN(C)C(=N)NCCC[C@H](N)C(=O)O; Cha = N[C@@H](CC1CCCCC1)C(=O)O; pNA = O=[N+]([O-])c1ccc(N*)cc1

Experiment [1] has as its target T1, human ASIC3 (Homo sapiens, UniProt Q9UHC3).
T1 construct: CHO cells stably expressing human ASIC3 (NM_004769.1)
T1 sequence (Q9UHC3 1-531): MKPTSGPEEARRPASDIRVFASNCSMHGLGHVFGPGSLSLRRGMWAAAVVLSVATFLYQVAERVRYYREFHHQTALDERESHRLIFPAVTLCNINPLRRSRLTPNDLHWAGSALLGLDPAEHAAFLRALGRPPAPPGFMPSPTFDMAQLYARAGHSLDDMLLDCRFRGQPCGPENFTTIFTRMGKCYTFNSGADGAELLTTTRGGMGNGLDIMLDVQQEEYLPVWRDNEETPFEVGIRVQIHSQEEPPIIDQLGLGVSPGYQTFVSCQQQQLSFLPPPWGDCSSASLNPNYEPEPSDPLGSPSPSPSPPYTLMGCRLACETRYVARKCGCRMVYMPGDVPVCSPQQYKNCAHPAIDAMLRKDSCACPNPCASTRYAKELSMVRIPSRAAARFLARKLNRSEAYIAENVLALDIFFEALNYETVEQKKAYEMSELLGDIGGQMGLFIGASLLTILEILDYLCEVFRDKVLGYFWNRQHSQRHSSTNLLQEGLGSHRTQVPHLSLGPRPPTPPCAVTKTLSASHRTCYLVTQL
The class given is cell-based. The conditions noted are these: for Geometric mean (I3s/Ipk) / Mean (I3s/Ipk), arithmetic: QPatch II; for Mean (I3s/Ipk), arithmetic: CHO cells. (In patch-clamp work, channel activity is measured electrically.)

The target of experiment [2] is T1, human ASIC3. The experiment is described as follows: QPatch II peptide concentration-response (I3s/Ipk). It counts as cell-based. The note with it: WT ASIC3, QPatch II, read-out: EC50 (95% CI). As for the experimental part:
RFamide peptide activity on ASIC3 was measured on the QPatch II platform (Sophion, Ballerup, Denmark) using either a CHO or HEK stable cell line and analyzed with Sophion Analyzer software (version 5.2). Prior to recording, the cells were washed twice in PBS (Gibco, Paisley, UK) and treated with Detachin (Genlantis, San Diego) for 3 min, then resuspended in their respective growth media without serum for a concentration of 2 × 10^6 cells/ml. A minimum of 5 mL of cells was added to the QStirrer, which was placed on the deck of the QPatch II and allowed to incubate at room temperature for a minimum of 20 min.
The bath solution contained 135 mM NaCl, 5 mM KCl, 4.8 mM CaCl2, 1 mM MgCl2, 10 mM HEPES, 10 mM MES, and 10 mM glucose adjusted to pH 7.4 with NaOH. The intracellular solution contained 65 mM CsF, 65 mM CsCl, 10 mM HEPES, 5 mM EGTA, 1 mM MgCl2, adjusted to pH 7.4 with CsOH. Cells were held at -60 mV and ASIC currents were evoked with 3 s applications of pH 6.3 buffer. Peptides were preincubated for at least 2 min. The extracellular solution was changed by dispensing 5 µL of buffer through the ~1.7 µL recording chamber, with a solution switch time of 100 ms, that exchanges 99% of the solution. Signals were acquired at 1 kHz and low-pass filtered at 300 Hz. Experiments performed on QPatch II are specifically indicated in the text.

In another experiment the target is T2, ASIC3 E378Q (Homo sapiens, UniProt Q9UHC3, E378Q).
T2 construct: human ASIC3 (NM_004769.4); P2A-mCherry reporter (C, cleaved yes); expressed in transfected cells; host or cells: CHO cells (85050302, Sigma), transient transfection
T2 sequence (Q9UHC3 1-531 E378Q): T1 sequence (Q9UHC3 1-531) with E378Q
In words: MPC peptide activity on ASIC3 E378Q mutant. The class given is cell-based. The conditions noted are these: read-out: EC50 (95% CI). The method, then:
(§1) We individually mutated the four glutamates to glutamine to remove their charge but maintain the side chain structure (Fig. 4C). We tested each mutant by incubating HEK cells stably expressing ASIC3 or CHO cells transfected with mutant ASIC3 with 30 µM WRPRFa before a pH 6.3 acid stimulus.
(§2) All mutagenesis was performed at Genscript, and sequences were verified by nanopore sequencing by Plasmidsaurus (Eugene, OR). The numbering of ASIC3 amino acids is based on RefSeq NP_004760.1. Plasmids were transfected into CHO cells using Lipofectamine 3000 (Thermo) according to the manufacturer’s protocol. Cells were used for patch-clamp recordings 24–48 h after transfection.
(§3) CHO and HEK cells were tested in the whole-cell configuration on MPC platforms using an Axopatch 200B amplifier (Axon Instruments, San Jose, CA) and a Digidata 1322A or Digidata 1440A digitizer (Axon) using pClamp 9.2 or 10.7 (Molecular Devices, San Jose, CA), respectively. When testing transfected cells, red fluorescence from the cleaved mCherry reporter was used to identify cells expressing ASIC3, ASIC131, or ASIC313. For cells expressing transfected ASIC1a or ASIC2a, the green signal from the cleaved eGFP reporter was used. All electrophysiology data were analyzed with Clampfit 11.1 (Molecular Devices).

The target of another experiment is T3, ASIC3 E416Q (Homo sapiens, UniProt Q9UHC3, E416Q).
T3 construct: human ASIC3 (NM_004769.4); P2A-mCherry reporter (C, cleaved yes); expressed in transfected cells; host or cells: CHO cells (85050302, Sigma), transient transfection
T3 sequence (Q9UHC3 1-531 E416Q): T1 sequence (Q9UHC3 1-531) with E416Q
The experiment is described as follows: MPC peptide activity on ASIC3 E416Q mutant (incl. double mutant cycle). The note with it: read-out: EC50 (95% CI). The class given is cell-based. The method, then:
as §1, §2, §3

For another experiment, the target named is T4, ASIC3 E78Q (Homo sapiens, UniProt Q9UHC3, E78Q).
T4 construct: human ASIC3 (NM_004769.4); P2A-mCherry reporter (C, cleaved yes); expressed in transfected cells; host or cells: CHO cells (85050302, Sigma), transient transfection
T4 sequence (Q9UHC3 1-531 E78Q): T1 sequence (Q9UHC3 1-531) with E78Q
The experiment is described as follows: MPC peptide activity on ASIC3 E78Q mutant (I3s/Ipk, peak current, double mutant cycle). The note with it: read-out: EC50 (95% CI). It counts as cell-based.

The target in experiment [3] is T1, human ASIC3. The experiment is described as follows: cell-based.
The target in experiment [4] is T5, human ASIC3 (acid-sensing ion channel 3) (human) (UniProt Q9UHC3).
T5 sequence: T1 sequence (Q9UHC3 1-531)

A further experiment concerns the target human ASIC3 E78Q (human) (UniProt Q9UHC3).
Experiment [5] has as its target T5, human ASIC3 (acid-sensing ion channel 3) (human). The source holds these as a separate data set.
For experiment [6] the target is unchanged. This is another data set of the same source.

Consider VRPRFa: site 5 Val (VRPRF-NH2), for which the “Geometric mean (I3s/Ipk)” value with human ASIC3 [1] (3 µM peptide) is given as 0.0213; with human ASIC3 [1] (30 µM peptide, pH 6.3) it was 0.157.
On to `N=C(N)NCCC[C@H](NC(=O)[C@@H]1CCCN1C(=O)[C@H](CCCNC(=N)N)NC(=O)[C@@H](N)Cc1c[nH]c2ccccc12)C(=O)N[C@@H](CC1CCCCC1)C(N)=O` [WRPR{Cha}a] (H-WRPR[Cha]-NH2), for which the EC50 on human ASIC3 [2] came out at 2.33 µM.
Turning to WIPRF-NH2 [WIPRFa], the concentration giving a half-maximal response (EC50) is 20.8 µM on ASIC3 E378Q, 10.3 µM at ASIC3 E416Q, 1.66 µM on ASIC3 E78Q and ≥ 24 µM at human ASIC3 [2].
Turning to WKPRF-NH2 [WKPRFa], the EC50 on human ASIC3 [2] amounted to 9.08 µM.
Consider “RPRF-p-nitroanilide: RPRFa with C-terminal amide replaced by para-nitroanilide (RPRF-pNA)”, for which the “I3s/Ipk, SAR - RPRFa - 30 uM” value with human ASIC3 [1] is 0.4296 and 0.3944 and 0.359 and 0.3858 and 0.3642. For the same molecule, the “Mean (I3s/Ipk), arithmetic” value came out at 0.387 with human ASIC3 [1] (30 µM peptide) and 0.387 ± 0.028 with human ASIC3 [1] (30 µM peptide, listed as RPRF-p-na).
“RPRF-COOH: RPRFa without C-terminal amidation (RPRF-OH)”: the “Mean (I3s/Ipk), arithmetic” value with human ASIC3 [1] (3 µM peptide) is 0.00354; with human ASIC3 [1] (30 µM peptide), 0.00339 ± 0.00259 and 0.00339.
`CN(C)C(=N)NCCC[C@H](NC(=O)[C@@H]1CCCN1C(=O)[C@H](CCCNC(=N)N)NC(=O)[C@@H](N)Cc1c[nH]c2ccccc12)C(=O)N[C@@H](Cc1ccccc1)C(N)=O` [WRP{ADMA}Fa] (H-WRP[Arg(Me2a)]F-NH2): the EC50 at human ASIC3 [3] came to 21.3 µM; at ASIC3 E78Q, 4.93 µM.
With FRPRF-NH2 [FRPRFa], the EC50 on human ASIC3 [2] amounted to 7.84 µM.
In experiment [4], WRPR{Cha}a (peptide) came in with an EC50 of I3s/Ipk, QPatch II of 2.33 µM.
Regarding WRP{ADMA}Fa (peptide), the EC50 of I3s/Ipk, escalating peptide before pH 6.3, manual patch clamp is 4.93 µM with human ASIC3 E78Q (human) and 21.3 µM in [5].
As to `N=C(N)NCCC[C@H](NC(=O)[C@@H]1CCCN1C(=O)[C@@H](N)CCCNC(=N)N)C(=O)N[C@@H](Cc1ccccc1)C(N)=O` [RPRFa] (H-RPRF-NH2), at human ASIC3 [3], the EC50 was ≥ 21.3 µM.
As for “WRPRF-COOH: WRPRFa without C-terminal amidation (WRPRF-OH)”, the “Geometric mean (I3s/Ipk)” value with human ASIC3 [1] (3 µM peptide) was 0.0303; in the experiment with human ASIC3 [1] (30 µM peptide, pH 6.3), 0.249.

B1: RPRFa (peptide)
peptide: RPRF-NH2
As to B1, the EC50 of I3s/Ipk, RPRFa before a pH 6.3 stimulus, manual patch clamp, HEK cells in [6] was > 21.3 µM.

For the origin of these results see paper PMC12738692, “Identification, characterization, and structure-activity relationship of the ASIC3-selective peptide WRPRFa” (Communications Chemistry, 2025).
